Measurements published in article PMC9463536 (The Journal of Biological Chemistry, 2022).

Tests used:
[1] = molecular target: T1, human claudin-4, untagged (human, UniProt O14493); test: SEC; conditions: both partners purified
T1 construct: also called hCLDN-4

[2] = molecular target: T2, cCpE-His10 (wild type) (Clostridium perfringens, UniProt P01558); test: BLI; conditions: both partners purified
T2 construct: not shown: His10, C-terminal, kept

T1 sequence (O14493 whole entry): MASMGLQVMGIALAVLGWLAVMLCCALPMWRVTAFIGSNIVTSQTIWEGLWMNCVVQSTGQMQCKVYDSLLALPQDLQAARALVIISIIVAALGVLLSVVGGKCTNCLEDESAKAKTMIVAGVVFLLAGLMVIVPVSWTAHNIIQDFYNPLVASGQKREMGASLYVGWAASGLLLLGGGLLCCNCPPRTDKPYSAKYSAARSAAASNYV

B1: COP-3 (CpE Obstructing Protein 3), synthetic antigen-binding fragment (Fab, V domains shown)
VH: EVQLVESGGGLVQPGGSLRLSCAASGFNFYSSSIHWVRQAPGKGLEWVAYISSYSGYTYYADSVKGRFTISADTSKNTAYLQMNSLRAEDTAVYYCARGYGYFDYNFSVGYALDYWGQGTLVTVSS
VL: DIQMTQSPSSLSASVGDRVTITCRASQSVSSAVAWYQQKPGKAPKLLIYSASSLYSGVPSRFSGSRSGTDFTLTISSLQPEDFATYYCQQSHPWYYPITFGQGTKVEIK
notes: also called sFab; source: E. coli BL21-Gold, purified (MabSelect SuRe, Resource S)
- binding result [1]: no binding
- Kd [2]: 138 ± 6.2 nM
- koff [2]: 0.001 s⁻¹
- kon [2]: 10000 M⁻¹ s⁻¹

B2: COP-2 (CpE Obstructing Protein 2), synthetic antigen-binding fragment (Fab, V domains shown)
VH: EVQLVESGGGLVQPGGSLRLSCAASGFNFSSSSIHWVRQAPGKGLEWVASISSYSGYTSYADSVKGRFTISADTSKNTAYLQMNSLRAEDTAVYYCARYWSWYNSSHYIYSALDYWGQGTLVTVSS
VL: DIQMTQSPSSLSASVGDRVTITCRASQSVSSAVAWYQQKPGKAPKLLIYSASSLYSGVPSRFSGSRSGTDFTLTISSLQPEDFATYYCQQSYEWAPVTFGQGTKVEIK
notes: as for B1
- binding result [1]: no binding
- Kd [2]: 67.6 ± 11.7 nM
- koff [2]: 0.00048 s⁻¹
- kon [2]: 7200 M⁻¹ s⁻¹
